In paper doi:10.1101/027631:

Target: recombinant tubulin lacking the β-tubulin CTT, polymerised into microtubules (S. cerevisiae | human) (UniProt P09733)
Test: TIRF microscopy of single fluorescent molecules on surface-held microtubules

- reduction of the frequency of processive movement relative to WT MTs: 20%
Substance: dynein-dynactin-BicD2 (DDB) complex (from UniProt Q921C5 25-400; A0A287B8J2 1-1281)
